As usually defined, the Kd is the free concentration of one partner at which half of the binding sites on the other are occupied at equilibrium, for simple one-to-one binding. Low readings indicate higher affinity, high ones lower affinity.

Assay [1] concerns the target Purified β-actin (Cytoskeleton) (UniProt P60709 1-375). As to the kind of experiment: SPR.
The target is the same in assay [2]. As to the kind of experiment: SPR. This is another data set of the same source. (In general: SPR reads the build-up and loss of mass on a sensor chip optically.)

B1: GST-tagged full-length Myo1c (natural protein)
chain: MALQVELIPTGEIIRVVHPHRPCKLALGSDGVRVTMESALTARDRVGVQDFVLLENFTSEAAFIENLRRRFRENLIYTYIGPVLVSVNPYRDLQIYSRQHMERYRGVSFYEVPPHLFAVADTVYRALRTERRDQAVMISGESGAGKTEATKRLLQFYAETCPAPERGGAVRDRLLQSNPVLEAFGNAKTLRNDNSSRFGKYMDVQFDFKGAPVGGHILSYLLEKSRVVHQNHGERNFHIFYQLLEGGEEETLRRLGLERNPQSYLYLVKGQCAKVSSINDKSDWKVVRKALTVIDFTEDEVEDLLSIVASVLHLGNTHFAADEESNAQVTTENQLKYLTRLLGVEGSTLREALTHRKIIAKGEELLSPLNLEQAAYARDALAKAVYSRTFTWLVAKINRSLASKDAESPSWRSTTVLGLLDIYGFEVFQHNSFEQFCINYCNEKLQQLFIELTLKSEQEEYEAEGIAWEPVQYFNNKIICDLVEEKFKGIISILDEECLRPGEATDLTFLEKLEDTIKQHPHFLTHKLADQRTRKSLDRGEFRLLHYAGEVTYNVTGFLDKNNDLLFRNLKETMCSSENPILGQCFDRSELSDKKRPETVATQFKMSLLELVEILKSKEPAYVRCIKPNDSKQPGRFDEVLIRHQVKYLGLMENLRVRRAGFAYRRKYEAFLQRYKSLCPETWPTWTGRPQDGVTVLVRHLGYKPEEYKMGRTKIFIRFPKTLFATEDALEIRRQSLATKIQATWRGFHCRQKFLRVKRSAICIQSWWRGTLGRRKAAKRKWAAQTIRRLIQGFILRHAPRCPENAFFVDHVRTSFLLNLRRQLPRNILDTSWPTPPPALREASELLRELCRKNMVWKYCRSISPEWKQQLQQKAVASEIFKGKKDNYPQSVPRLFISTRLGADEINPRVLQALGSEPIQYAVPVVKYDRKGYKPRSRQLLLTPNAVVIVEDAKVKQRIEYTNLTGISVSSLSDSLFVLHVQREDNKQKGDVVLQSDHVIETLTKTALSADRVNNININQGSITFAGGPGRDGIIDFTPGSELLITKAKNGHLAVVAPRLNSR
The molecule B1 came in with a Kd in assay [1] of no more than 2 µM.

B2: GST-tagged Myo1c tail domain (domain or fragment)
chain: KDNYPQSVPRLFISTRLGADEINPRVLQALGSEPIQYAVPVVKYDRKGYKPRSRQLLLTPNAVVIVEDAKVKQRIEYTNLTGISVSSLSDSLFVLHVQREDNKQKGDVVLQSDHVIETLTKTALSADRVNNININQGSITFAGGPGRDGIIDFTPGSELLITKAKNGHLAVVAPRLNSR
In turn, B2 came in with a Kd in assay [2] of no more than 2 µM.

The record behind these values is publication PMC3392929 (The Journal of Cell Biology, 2012).
